Assay results published in patent publication US20100062980A1, “THERAPEUTIC USES OF BETA-ANTAGONISTS” (priority 2006, published 2010).

Test system: Swiss albino male mice
Format: in vivo
Details: mouse, in vivo, 2.5 mg/kg
From the text: Swiss albino male mice (˜20 g) were used for the in vivo toxicity study. Male Sprague-Dawley (SD) rats were used for electrocardiogram (ECG) monitoring (3-4 weeks old, ˜80-100 g) and the Langendorff isolated perfused heart experiments (8 weeks old, ˜250 g). Animals were acquired from the university Laboratory Animal Center (LAC) and were acclimatized to the Animal Holding Unit surroundings for at least 3 days prior to the experiments. Animals were kept under standard conditions with food and water available ad lib. All animal experiments were conducted according to the protocol (776/05a) approved by the Institutional Animal Care and Use Committee (IACUC) of the National University of Singapore.
The protein was dissolved in 200 μl of 0.9% NaCl (Braun, Malaysia) and administered through the intra-peritoneal (i.p.) route for the in vivo toxicity study in mice. Intra-tail vein (i.t.v.) administration was done in the ECG monitoring study in rats. The various protein doses were dissolved in 200 μl of 0.9% NaCl solution and injected into the tail vein using a 27 G ½ needle (Becton Dickinson, Franklin Lakes, N.J.) held at an angle of about 10° to the tail. […]
After purification of the protein from snake venom, i.p. doses of 1 mg/kg, 10 mg/kg and 100 mg/kg were administered to healthy male mice (three animals per group) and the symptoms were observed and recorded. […]

Substance: α-bungarotoxin [reference compound]
- symptoms: severe paralysis of the hind limbs
